Target: Recombinant Human TNF-α/TNFSF1A (human, UniProt P01375 77-233)
Assay: cell-based or functional assay

Chain of Recombinant Human TNF-α/TNFSF1A (P01375 77-233 limits assumed): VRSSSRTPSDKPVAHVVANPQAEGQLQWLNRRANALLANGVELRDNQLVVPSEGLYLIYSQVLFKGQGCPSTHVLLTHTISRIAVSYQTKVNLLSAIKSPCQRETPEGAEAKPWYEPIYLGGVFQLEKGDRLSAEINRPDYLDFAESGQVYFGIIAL

B1: DVD3088 (bispecific antibody, IgG1)
VH: EVQLVQSGAEVKKPGASVKVSCKASGYTFTTYGVSWVRQAPGQGLEWMGEIYPGNYNTYYNEKFRGRVTMTTDTSTSTAYMELRSLRSDDTAVYYCARWRTSYFSDYGYFDYWGQGTTVTVSSGGGGSGGGGSEVQLVESGGGLVQPGGSLRLSCAASGFTFSNYGVTWVRQAPGKGLEWVSMIWADGSTHYASSVKGRFTISRDNSKNTLYLQMNSLRAEDTAVYYCAREWQHGPVAYWGQGTLVTVSS
VL: DVVMTQSPLSLPVTLGQPASISCRSSQSLVHSHGNTYLHWYQQRPGQSPRLLIYTVSNRFSGVPDRFSGSGSGTDFTLKISRVEAEDVGVYYCSQSTHVPYTFGGGTKVEIKRGGSGGGGSGDIQMTQSPSSLSASVGDRVTITCRASQLVSSAVAWYQQKPGKAPKLLIYWASARHTGVPSRFSGSGSGTDFTLTISSLQPEDFATYYCQQHYKTPFTFGQGTKLEIKR
  C-Terminal VD huTNFα Neutralization Assay IC50: 0.472 nM

B2: DVD3011 (bispecific antibody, IgG1)
VH: EVQLVQSGAEVKKPGASVKVSCKASGYTFNNYGIIWVRQAPGQGLEWMGWINTYTGKPTYAQKFQGRVTMTTDTSTSTAYMELSSLRSEDTAVYYCARKLFNTVAVTDNAMDYWGQGTTVTVSSASTKGPEVTLRESGPGLVKPTQTLTLTCTLYGFSLSTSDMGVDWIRQPPGKGLEWLAHIWWDDVKRYNPALKSRLTISKDTSKNQVVLKLTSVDPVDTATYYCARTVSSGYIYYAMDYWGQGTLVTVSS
VL: DIQMTQSPSSLSASVGDRVTITCRASQDIENYLNWYQQKPGKAPKLLIYYTSRLQSGVPSRFSGSGSGTDFTLTISSLQPEDFATYFCQQGNTQPPTFGQGTKLEIKRTVAAPSVFIFPPDIQMTQSPSSLSASVGDRVTISCRASQDIRNYLNWYQQKPGKAPKLLIFYTSKLHSGVPSRFSGSGSGTDYTLTISSLQPEDIATYYCQQGLTPPLTFGGGTKVEIKR
  N-Terminal VD huTNFα Neutralization Assay IC50: 0.024 nM

B3: DVD2788 (bispecific antibody, IgG1)
VH: EVTLRESGPGLVKPTQTLTLTCTLYGFSLSTSDMGVDWIRQPPGKGLEWLAHIWWDDVKRYNPALKSRLTISKDTSKNQVVLKLTSVDPVDTATYYCARTVSSGYIYYAMDYWGQGTLVTVSSGGGGSGGGGSEVQLVQSGAEVKKPGASVKVSCKASGYTFANYGIIWVRQAPGQGLEWMGWINTYTGKPTYAQKFQGRVTMTTDTSTSTAYMELSSLRSEDTAVYYCARKLFTTMDVTDNAMDYWGQGTTVTVSS
VL: DIQMTQSPSSLSASVGDRVTISCRASQDIRNYLNWYQQKPGKAPKLLIFYTSKLHSGVPSRFSGSGSGTDYTLTISSLQPEDIATYYCQQGLTPPLTFGGGTKVEIKRGGSGGGGSGDIQMTQSPSSLSASVGDRVTITCRASQDISQYLNWYQQKPGKAPKLLIYYTSRLQSGVPSRFSGSGSGTDFTLTISSLQPEDFATYFCQQGNTWPPTFGQGTKLEIKR
  C-Terminal VD huTNFα Neutralization Assay IC50: 0.23 nM

B4: DVD3013 (bispecific antibody, IgG1)
VH: EVTLRESGPGLVKPTQTLTLTCTLYGFSLSTSDMGVDWIRQPPGKGLEWLAHIWWDDVKRYNPALKSRLTISKDTSKNQVVLKLTSVDPVDTATYYCARTVSSGYIYYAMDYWGQGTLVTVSSGGGGSGGGGSEVQLVQSGAEVKKPGASVKVSCKASGYTFNNYGIIWVRQAPGQGLEWMGWINTYTGKPTYAQKFQGRVTMTTDTSTSTAYMELSSLRSEDTAVYYCARKLFNTVAVTDNAMDYWGQGTTVTVSS
VL: DIQMTQSPSSLSASVGDRVTISCRASQDIRNYLNWYQQKPGKAPKLLIFYTSKLHSGVPSRFSGSGSGTDYTLTISSLQPEDIATYYCQQGLTPPLTFGGGTKVEIKRGGSGGGGSGDIQMTQSPSSLSASVGDRVTITCRASQDIENYLNWYQQKPGKAPKLLIYYTSRLQSGVPSRFSGSGSGTDFTLTISSLQPEDFATYFCQQGNTQPPTFGQGTKLEIKR
  C-Terminal VD huTNFα Neutralization Assay IC50: 0.229 nM

B5: DVD2789 (bispecific antibody, IgG1)
VH: EVTLRESGPGLVKPTQTLTLTCTLYGFSLSTSDMGVDWIRQPPGKGLEWLAHIWWDDVKRYNPALKSRLTISKDTSKNQVVLKLTSVDPVDTATYYCARTVSSGYIYYAMDYWGQGTLVTVSSASTKGPEVQLVQSGAEVKKPGASVKVSCKASGYTFANYGIIWVRQAPGQGLEWMGWINTYTGKPTYAQKFQGRVTMTTDTSTSTAYMELSSLRSEDTAVYYCARKLFTTMDVTDNAMDYWGQGTTVTVSS
VL: DIQMTQSPSSLSASVGDRVTISCRASQDIRNYLNWYQQKPGKAPKLLIFYTSKLHSGVPSRFSGSGSGTDYTLTISSLQPEDIATYYCQQGLTPPLTFGGGTKVEIKRTVAAPDIQMTQSPSSLSASVGDRVTITCRASQDISQYLNWYQQKPGKAPKLLIYYTSRLQSGVPSRFSGSGSGTDFTLTISSLQPEDFATYFCQQGNTWPPTFGQGTKLEIKR
  C-Terminal VD huTNFα Neutralization Assay IC50: 0.186 nM

B6: DVD2792 (bispecific antibody, IgG1)
VH: EVTLRESGPGLVKPTQTLTLTCTLYGFSLSTSDMGVDWIRQPPGKGLEWLAHIWWDDVKRYNPALKSRLTISKDTSKNQVVLKLTSVDPVDTATYYCARTVSSGYIYYAMDYWGQGTLVTVSSASTKGPSVFPLAPEVQLVQSGAEVKKPGASVKVSCKASGYTFANYGIIWVRQAPGQGLEWMGWINTYTGKPTYAQKFQGRVTMTTDTSTSTAYMELSSLRSEDTAVYYCARKLFTTMDVTDNAMDYWGQGTTVTVSS
VL: DIQMTQSPSSLSASVGDRVTISCRASQDIRNYLNWYQQKPGKAPKLLIFYTSKLHSGVPSRFSGSGSGTDYTLTISSLQPEDIATYYCQQGLTPPLTFGGGTKVEIKRTVAAPDIQMTQSPSSLSASVGDRVTITCRASQDISQYLNWYQQKPGKAPKLLIYYTSRLQSGVPSRFSGSGSGTDFTLTISSLQPEDFATYFCQQGNTWPPTFGQGTKLEIKR
  C-Terminal VD huTNFα Neutralization Assay IC50: 0.136 nM

B7: DVD3017 (bispecific antibody, IgG1)
VH: EVTLRESGPGLVKPTQTLTLTCTLYGFSLSTSDMGVDWIRQPPGKGLEWLAHIWWDDVKRYNPALKSRLTISKDTSKNQVVLKLTSVDPVDTATYYCARTVSSGYIYYAMDYWGQGTLVTVSSASTKGPSVFPLAPEVQLVQSGAEVKKPGASVKVSCKASGYTFNNYGIIWVRQAPGQGLEWMGWINTYTGKPTYAQKFQGRVTMTTDTSTSTAYMELSSLRSEDTAVYYCARKLFNTVAVTDNAMDYWGQGTTVTVSS
VL: DIQMTQSPSSLSASVGDRVTISCRASQDIRNYLNWYQQKPGKAPKLLIFYTSKLHSGVPSRFSGSGSGTDYTLTISSLQPEDIATYYCQQGLTPPLTFGGGTKVEIKRTVAAPDIQMTQSPSSLSASVGDRVTITCRASQDIENYLNWYQQKPGKAPKLLIYYTSRLQSGVPSRFSGSGSGTDFTLTISSLQPEDFATYFCQQGNTQPPTFGQGTKLEIKR
  C-Terminal VD huTNFα Neutralization Assay IC50: 0.234 nM

B8: DVD3014 (bispecific antibody, IgG1)
VH: EVTLRESGPGLVKPTQTLTLTCTLYGFSLSTSDMGVDWIRQPPGKGLEWLAHIWWDDVKRYNPALKSRLTISKDTSKNQVVLKLTSVDPVDTATYYCARTVSSGYIYYAMDYWGQGTLVTVSSASTKGPEVQLVQSGAEVKKPGASVKVSCKASGYTFNNYGIIWVRQAPGQGLEWMGWINTYTGKPTYAQKFQGRVTMTTDTSTSTAYMELSSLRSEDTAVYYCARKLFNTVAVTDNAMDYWGQGTTVTVSS
VL: DIQMTQSPSSLSASVGDRVTISCRASQDIRNYLNWYQQKPGKAPKLLIFYTSKLHSGVPSRFSGSGSGTDYTLTISSLQPEDIATYYCQQGLTPPLTFGGGTKVEIKRTVAAPDIQMTQSPSSLSASVGDRVTITCRASQDIENYLNWYQQKPGKAPKLLIYYTSRLQSGVPSRFSGSGSGTDFTLTISSLQPEDFATYFCQQGNTQPPTFGQGTKLEIKR
  C-Terminal VD huTNFα Neutralization Assay IC50: 0.49 nM

B9: DVD2791 (bispecific antibody, IgG1)
VH: EVTLRESGPGLVKPTQTLTLTCTLYGFSLSTSDMGVDWIRQPPGKGLEWLAHIWWDDVKRYNPALKSRLTISKDTSKNQVVLKLTSVDPVDTATYYCARTVSSGYIYYAMDYWGQGTLVTVSSASTKGPEVQLVQSGAEVKKPGASVKVSCKASGYTFANYGIIWVRQAPGQGLEWMGWINTYTGKPTYAQKFQGRVTMTTDTSTSTAYMELSSLRSEDTAVYYCARKLFTTMDVTDNAMDYWGQGTTVTVSS
VL: DIQMTQSPSSLSASVGDRVTISCRASQDIRNYLNWYQQKPGKAPKLLIFYTSKLHSGVPSRFSGSGSGTDYTLTISSLQPEDIATYYCQQGLTPPLTFGGGTKVEIKRTVAAPSVFIFPPDIQMTQSPSSLSASVGDRVTITCRASQDISQYLNWYQQKPGKAPKLLIYYTSRLQSGVPSRFSGSGSGTDFTLTISSLQPEDFATYFCQQGNTWPPTFGQGTKLEIKR
  C-Terminal VD huTNFα Neutralization Assay IC50: 0.064 nM

B10: DVD3016 (bispecific antibody, IgG1)
VH: EVTLRESGPGLVKPTQTLTLTCTLYGFSLSTSDMGVDWIRQPPGKGLEWLAHIWWDDVKRYNPALKSRLTISKDTSKNQVVLKLTSVDPVDTATYYCARTVSSGYIYYAMDYWGQGTLVTVSSASTKGPEVQLVQSGAEVKKPGASVKVSCKASGYTFNNYGIIWVRQAPGQGLEWMGWINTYTGKPTYAQKFQGRVTMTTDTSTSTAYMELSSLRSEDTAVYYCARKLFNTVAVTDNAMDYWGQGTTVTVSS
VL: DIQMTQSPSSLSASVGDRVTISCRASQDIRNYLNWYQQKPGKAPKLLIFYTSKLHSGVPSRFSGSGSGTDYTLTISSLQPEDIATYYCQQGLTPPLTFGGGTKVEIKRTVAAPSVFIFPPDIQMTQSPSSLSASVGDRVTITCRASQDIENYLNWYQQKPGKAPKLLIYYTSRLQSGVPSRFSGSGSGTDFTLTISSLQPEDFATYFCQQGNTQPPTFGQGTKLEIKR
  C-Terminal VD huTNFα Neutralization Assay IC50: 0.148 nM

B11: DVD3012 (bispecific antibody, IgG1)
VH: EVQLVQSGAEVKKPGASVKVSCKASGYTFNNYGIIWVRQAPGQGLEWMGWINTYTGKPTYAQKFQGRVTMTTDTSTSTAYMELSSLRSEDTAVYYCARKLFNTVAVTDNAMDYWGQGTTVTVSSASTKGPSVFPLAPEVTLRESGPGLVKPTQTLTLTCTLYGFSLSTSDMGVDWIRQPPGKGLEWLAHIWWDDVKRYNPALKSRLTISKDTSKNQVVLKLTSVDPVDTATYYCARTVSSGYIYYAMDYWGQGTLVTVSS
VL: DIQMTQSPSSLSASVGDRVTITCRASQDIENYLNWYQQKPGKAPKLLIYYTSRLQSGVPSRFSGSGSGTDFTLTISSLQPEDFATYFCQQGNTQPPTFGQGTKLEIKRTVAAPDIQMTQSPSSLSASVGDRVTISCRASQDIRNYLNWYQQKPGKAPKLLIFYTSKLHSGVPSRFSGSGSGTDYTLTISSLQPEDIATYYCQQGLTPPLTFGGGTKVEIKR
  N-Terminal VD huTNFα Neutralization Assay IC50: 0.034 nM
